# Assay: label from the status in PepcDB records
row,Sequence,protein production
1,SNSALYNVDAGHRAVIFDRFRGVQDIVVGEGTHFLIPWVQKPIIFDCRSRPRNVPVITGSKDLQNVNITLRILFRPVASQLPRIYTSIGEDYDERVLPSITTEILKSVVARFDAGELITQRELVSRQVSDDLTERAATFGLILDDVSLTHLTFGKEFTEAVEAKQVAQQEAERARFVVEKAEQQKKAAIISAEGDSKAAELIANSLATAGDGLIELRKLEAAEDIAYQLSRSRNITYLPAGQSVLLQLPQ,not failed
2,MSVNMDELRHQVMINQFVLAAGCAADQAKQLLQAAHWQFETALSTFFQETNIPNSHHHH,not failed
3,MIPPSIRLTLRNLIVNTDPGTLLFLLGLPSFYLIVLGLMFQSIIPNVPFAGKDISYAQFLSPGVVAMQPFIAGSIGGSMLWSDRRWGMFEQLIVGPFHRIDYLLGIIYVSIIFSVGGAFLMFLVSYAITGFLVSYDINLLMIAVVLIVSSILFTSIFLVLSVFIRTIQTYNTVTMFVFFILDFASSAFYPINSRTPLGLRIVSYMNPLTYIVDAVRNMMFYKIGMQDYISLLIVVVLSGFFFLIALVSYGRARV,failed
4,MEITKIRGTLPSITYWNSTTPIKYTYNGTTYTGYMGNYWSDYNGTDSDGDGIGDTSYTVPNDLGTDNHPLMQPFENYNLEHHHHHH,failed
5,MIYRKATEKDIAQLVELRKKQLEDEGIAPINNIDTELTHFFELSFKKNSFISWISEEDNEIIATSGVCFYKYPPSYLNPSGKVAYITNMYTKYEYRSRGIALALLKLVILEAKKRDYLFLRLHASDMGRPIYEEIGFKPFDDFMEMNLSLNRNGELEHHHHHH,not failed
6,MNTVFFYLQVSIKNLHDSIKNLRVSIKNLYVSIKGAGITAFLQTVKYERFEEKILMDFISNLFGRDKNQSFLEASKQGQTENVEKLLRSNKVDVNYQDAYGKTALISAADKGYRDVIGLLIESGPNLDLQDENGNTALISAAKIERGDIIDLLVKNGADLNFQDENGETALKFAVKVGYKNIADQLIDAGTDLNIQDENGETALICAADRAHRDIAELLIKAGADLNIQDNSGKTALVAATKIGHKGIVELLVNAGADLNLQDKNGNTALIYAADRGYRDIVNLLIEGGASLNIPDEAGLTALMFSAQTGRKDIVELLIKAGADINIEDKNNKTAADLAAEVGFEEIVDLLTSVRTYSSS,failed
7,MEDKRISEKESLELIACMIRETQDNTARYAAYPLLIWGYTTVAISLVVWYFYLQTGVWQINFLWFALPVIAGPLTIFFNRKDKNKGAKNYIDRVTGQIWAVFGVVGFCLSCMAFVVRIDILFVISLLMGMGATLTGLVCKYKPLSIAGMTGIALSFSMLFIHGSGVYLVFAAIFIVMMIVPGHIMNKQMKKQCLKN,failed
8,MERIALPRRTLGARRREVPVTPDTLLPLLAVLPPLAYGLLALFCARAWFGRQRPGPGHTPPVTILKPVKGMDAESFENFASFCRQEYGGPWQMLFACASADDPVIPVIRRLMAEFPDRDIDLVVDGTIHGPNYKVSNLINAFPRARHDILIVCDSDIRVTSDYLGEVTAPFADPAVGLVTSLYRSPGVRGAATALEAMGFTVEMVPNVMVAQRLEGLSFALGASMAVRRTALESIGGFPALTHYLADDYQLGNKIHRAGWRLELSDCFVESVMHRENLTTVLSRQLRWCRTMRASRPGGYLGSGITQPVPLACLALLVSGCSAAGWGAVILLYLTRALVAVTFSRRYLRDGIFPRWLWLLPLRDILAFATWALSFAGNRVRWRGNLFRLLPGGKIVEIG,failed
9,MSELTAFGHSLSSGYEVVVIKPQSLSDTTLIVQALRADKAVILNLEHLDVAEAQRISDFAAGSTYAINGHQSRLGDGVFLFTPNVINIQERTAVPTPAGLV,failed
10,MNQAAQQSAPSRLRDRTLAAFTLMVSQPALAAIAALAALYALLAVVGGILTFSPVPFWDMWDGGLGFYVRQMTDVSQWWAQHNEHRIVLSRILFFLDYRYFDSNGAVLVVINYLLACSTFGLLAWCALQRDASRRRDGRMIAAFILCCALLWTQSNNLTWAFQSQFFLANLLPLLALVLLHASCRTRIRGNAIVFLAALTVAAMAAVSMANGVLAGGVVAAACLLGRQSWRRNLLAWAVAIAVPALYFHHYTAPAGHGSILASLRTEPLEVIKFFFAYIGSPFAHLDASGPLHLGWAILAGVVLLTAGAILAWRTIFKRHDTVDVDLVVTLFLGYLVASAFATAGSRALFGLDAAVASRYTTPGLLVLGCVLILASRNFFRDRALTMPYQIGLALMALAFLPSQLTATRPQPYLDFEWRFAALALELGVKDDKQIGWIFPDAAWAQKIAEPAANMGLGIFAKPGIYDAKLTLGGSYPTSSLQTCSLAGLENEAVDASTNDWIRLKGGLMNSILPRKISTVLLVDANNTIVGRGLLAEPKQDSPGAPFGAPFKAYLMGRAQPAVYKIVIPGFCTTTVAPKSQ,failed
11,ESLKAGSSWQCDTCLLQNKVTDNKCIACQAAKLSPRDTAKQTGIETPNKSGKTTLSASGTGFGDKFKPVIGTWDCDTCLVQNKPEAIKCVACETPKPGTCVKRALTLTVV,failed
12,GYNRRFDAGFVAARAAVASGELGALHTVRSTTLDPAPPPPAYVAASGGIFRDCSVHDFDIIRWVTGREVVEVYATGGNRGADYIAAAGDADTTAAVLTLDDGTLAVVSNSRHNARGHDVRMELHGFRDSIAVGLEDRLPLRSVEPGTSFPAGTPHDFFMDRFAAAYRAELTAFTEVVAGRRPSPCTVADALEAGWIAEACTLSLHSHRPVTVEEVRRQS,failed
13,MQDSFFSFLSSPINLLFLFVAFFLLFVTPWLWNIVNSAHNIHKLLDPLGIKKKENSLPVTGLLFLPLLLIIIFIEWFWPLANITLFPILASPYIKFNIIAVISVVILLILIQCDKKKSMELWVLAYAAVLYLLYLIIIMATVVVGMNAFPASHYIFAPESSMTINRTIIYGLLIAHLIFIWLTISLKFTWRLLLMILYTLALSFAYFSLIVS,failed
14,MRFFVFLKTLQSRSFCIFQQSFLLFFTSFFIIFVSNLCFISRGYGQNPPSLPAEPPSPQLLLPLDDLIPNDPSSAPAEPNSDSAATILEDFDAVHQSYAQRTEQRKEAEILRLLKELKFCADVEKARKISQQLQRLWSQSGSETIDLLMLWAENAINADNYGLALDYIDNALALLPTYAEGWIRRAWVHIQLSDFKLAMLDLNHALKLEPRNYIAFFELGITMEATERPKLALKAYETALEYYPQMQKVQKRIEELLDKQSPQAL,failed
15,MDFPTISRSPSGPPAMDLEGPRDILVPSEDLTPDSQWDPMPGGPGSLSRMELDESSLQELVQQFEALPGDLVGPSPGGAPCPLHIATGHGLASQEIADAHGLLSAEAGRDDLLGLLHCEECPPSQTGPEEPLEPAPRLLQPPEDPDEDSDSPEWVEGASAEQEGSRSSSSSPEPWLETVPLVTPEEPPAGAQSPETLASYPAPQEVPGPCDHEDLLDGVIFGARYLGSTQLVSERNPPTSTRMAQAREAMDRVKAPDGETQPMTEVDLFVSTKRIKVLTADSQEAMMDHALHTISYTADIGCVLVLMARRRLARRPAPQDHGRRLYKMLCHVFYAEDAQLIAQAIGQAFAAAYSQFLRESGIDPSQVGVHPSPGACHLHNGDLDHFSNSDNCREVHLEKRRGEGLGVALVESGWGSLLPTAVIANLLHGGPAERSGALSIGDRLTAINGTSLVGLPLAACQAAVRETKSQTSVTLSIVHCPPVTTAIIHRPHAREQLGFCVEDGIICSLLRGGIAERGGIRVGHRIIEINGQSVVATPHARIIELLTEAYGEVHIKTMPAATYRLLTGQEQPVYL,not failed
16,MVDTTILAQALGFISFGLGFSVFYQKNDRHLKILMLIFNLNHLLHFLLLGSMVSALSALLSALRTTTAIFVSSKRVAAVFIVISLVSGFWVAEQWRDLWPIIGTVIGTYSVFCLSGIRMRIGFLLGASCWLTNNILVGSIGGTLLEMTVIVMNLLTIYRLHRQQSESMINQSSY,failed
17,MAAFQIANKTVGKDAPVFIIAEAGINHDGKLDQAFALIDAAAEAGADAVKFQMFQADRMYQKDPGLYKTAAGKDVSIFSLVQSMEMPAEWILPLLDYCREKQVIFLSTVCDEGSADLLQSTSPSAFKIASYEINHLPLLKYVARLNRPMIFSTAGAEISDVHEAWRTIRAEGNNQIAIMHCVAKYPAPPEYSNLSVIPMLAAAFPEAVIGFSDHSEHPTEAPCAAVRLGAKLIEKHFTIDKNLPGADHSFALNPDELKEMVDGIRKTEAELKQGITKPVSEKLLGSSYKTTTAIEGEIRNFAYRGIFTTAPIQKGEAFSEDNIAVLRPGQKPQGLHPRFFELLTSGVRAVRDIPADTGIVWDDILLKDSPFHE,not failed
18,MTQPHQIILLAHGSSDARWCETFEKLAEPTVESIENAAIAYMELAEPSLDTIVNRAKGQGVEQFTVVPLFLAAGRHLRKDVPAMIERLEAEHGVTIRLAEPIGKNPRLGLAIRDVVKEELERSEH,not failed
19,MYTYDSDKTQDGEENLKCSLEKLAKKIIQNAGDTNGNNSTPNSNDDFAQVFGRERPGRVRCVGLGPTPSSFIQNRTTTTLSKEQEVLSLNNRVRELEDKLVKMSDLEDKVDKMNEVIYISTCRRQQQLHYMTSTMDRRRWLQVEGNDFK,failed
20,MEMNRRRSRGFMIAKLMPFCKAVKSPTPSQDLYNNVHYTSSTTTSYARQPDFNNYVTATTPLPPKVSFLLQPSLAPEGKDMEKKLNMMAEKLIGRGINGVDDCVDARAASYISSVRERFKADQYCEKLTTVISLDDEN,failed
21,MKVSILIITYNHSHFIAQAIESVLMQKVKFEYEIVIGEDSSTDNTRQILLDYQKQYSDKIRLLLPEKNLGMHRNFVNTLQACRGEYIAILEGDDYWIADDKLQKQVEFLDENPDFTICFHNVMVFHEDNQYQPYIFLHNQPTVSYIEDLLIRNFISTPSVMYRNGLVESIPTWFYEQGMGDWIFHILNAQYGKIGYIDEVMSAYRIHVQGVWSSKSRDWQLKETIRMLDTIKSNVNVRYAEIIDRAVQFYSEQLLYLVPESQEVTPVLNTSLPNYLQIKDINFIAFPDWNQPEELLYQSLYYAIKLFLTHPENNKIALFIDTTDISEEDADIYISSTLMNLMLEEELEESHKINVFLIGELDQIQWQTLLSFLKARIVLPSENLDAILASGTAIIPCLTVEQLIEFDLTFIESAKPYKLNIGCGNVRFHGWINIDIEQNYKTVDLVCDARQKLPFNDNSCDLIYNEHFLEHLTLEEGLFFLKECHRILKPEGILRIAMPSLEYVVQKYMSDDWRNQEWLNYPEYQFIKTRAEMLNIAMRWWGHQWLYDTEELHRRLTESGYINVQNFAWGKSNTPDLRNRETRVDSILICESQALK,failed
22,DGRCISLLKILMTNFCIFDCAYCVNRVSSRVERARFSVEEVVTLTVEFYRRNYIEGLFLSSGIIRSPDDTMADMVRIAKTLREREHFRGYIHLKTIPDAAPELIEQAGLYADRLSINVELPTEAGLDRFAPEKSATGIRKAMAEVRLKREASREPSFSGRRPSRFA,failed
23,MSLSAMPAALSFAGLAGWAEEDHLAALNAFRAGCGVSKDPAAARVCGLAKATKDLDVSGAKAFIEANFRVEAVDGGGDGLLTAYFAPQYEARMSRNAEFSAPLRGLPADLVVLDLGPFEPALVGKKITGHVEGSTFVPYPDRAEIEATPSDKPLAWMRPEELFFLQIQGSGVLVLPDGRRVRAVFAGTNGKPFVGIAIAMRDKGLLPDNNTSADAIRTWLAEHRGPEADAIMRLNPRYVFFRTVPDDGKEPAGAAGVALPPGRAIAVDPGYHAYGGFYWLDAAAPKLVGAFPVYRRAVTALDTGGAIKGEVRADLYMGSGAVAGVEAGRVRHTLRLYRLTPNPEGHHHHHH,not failed
24,MTGMRKTLKATLAEARAQVEAALKEEGFGILTEIDVAATLKAKLGLEKPPYLILGACNPNLAARALEALPEIGLLLPCNVVLREAEEGVEVLIQDPKEMFRVLPEATQRALAPVAEEARTRLSRALSRL,not failed
25,MFSAKKLSPADKLKNISSMLEEIVEDTTVPRNIRAAADNAKNALHNEEQELIVRSATAIQYLDDISEDPNMPIHTRTQIWGIVSELETIKN,not failed
